Source: the DeepSol protein solubility set

Assay: soluble on expression in E. coli; label from the status in PepcDB or PDB records

Sequence | soluble on expression in E. coli
MSLSKKIVIVGGVAGGASTAARLRRLDENNQIIMFERGPHVSFSNCCLPYYLSGKVENHEDLVLMTPEKFYSQYRIDARVYTEVVSINRKAKEVTVRNVVSGQEYTESYDKLVLSPGAKAIVPPIKGIEDVNVFTVRNVVDIAKLDSFIKDNNSKNISVIGGGFIGVEVAENLHEAGYNVTLIEAMDQIMKPFDYDMVQVLHKEMYDKGVNLIVGDKVSSFESGKVVLESGKKINSDAVVMAIGVAPETDLAREAGLEIGQTGAIKVNQNYLTNDKDIYAVGDAVEVYNSLTNSISRLPLAGPAQKQARAVADHIHGRPSRNSGYIGSSCVQIFDYNGASTGLTEGQIKAMNLSLNYDVVRVIPQDKVGLMPGSEPLHFKLIFEVPTGRILGAQAIGKGNADKRVDIIATLIKMGGTVEDLKDLELCYAPPFGTAKDVVNHAALVASNLLEGTFKQVYVHEVRDLVESGACIIDVREVSEYEAGHIKGAKNLPLSEIRDRLDEIPTDRPVYLHCRSAQRSYNACLALQHLGFDNIYNVSGGFMGISFYEYYNDKVQDREPIVTEYNFNEGHHHHHH | soluble
MSLSKSRKIDVHAHVLPKNIPDFQEKFGYPGFVRLDHKEDGTTHMVKDGKLFRVVEPNCFDTETRIADMNRANVNVQCLSTVPVMFSYWAKPADTEIVARFVNDDLLAECQKFPDRLVPLGTLPMNDVQRAVEEVKRCVSMGIKGFEVGSHVAEKSLDHRDFWPLYKICEELSVVLFVHPWDMHMWDGRLDKYWMPWLVGMPSETAQAICSVLMGNILVLFPKLKLCFAHGGGAYPQIRGRVSHGWNVRPDLCAGKCKVAPNKLDGLLWTDSLVHDPKALELLINTVGKEHIVLGTDYPFPLGELEVGRVVEEYKPFSAKDREDLLWKNAVKMLDIDENLLFNKDFEGHHHHHH | not soluble
MSLSLLLQQHLSQPWRFLDHTSFGPTFQALQSFAYDDTLCTSIGKSQSPPTLRAWVHHNTVVLGIQDSRLPQIKAGIEALKGFQHDVIVRNSGGLAVVLDSGILNLSLVLKEEKGFSIDDGYELMYELICSMFQDHREQIEAREIVGSYCPGSYDLSIDGKKFAGISQRRIRGGVAVQIYLCVSGSGAERAKMIRTFYDKAVAGQPTKFVYPRIKPETMASLSELLGQPHNVSDVLLKALMTLQQHGASLLTESLSADEWLLYEQHFARISERNEKLLAEEGHHHHHH | soluble
MSLSLLSKFSRGVPSPALAHIAKRTFSSVNFSQILRRPQNSSLRLRLVRNISNSNPLPKMTEAGKNIVLKRHDLIVKGAQDAREYRGLELTNGIRVLLVSDPTTDKSAAALDVKVGHLMDPWELPGLAHFCEHMLFLGTAKYPSENEYSKFLAAHAGSSNAYTSSDHTNYHFDVKPDQLPGALDRFVQFFLSPQFTESATEREVCAVDSEHSNNLNNDLWRFLQVDRSRSKPGHDYGKFGTGNKQTLLEDARKKGIEPRDALLQFHKKWYSSDIMTCCIVGKEPLNVLESYLGTLEFDAIENKKVERKVWEEFPYGPDQLAKRIDVVPIKDTRLVSISFPFPDLNGEFLSQPGHYISHLIGHEGPGSLLSELKRLGWVSSLQSDSHTQAAGFGVYNVTMDLSTEGLEHVDEIIQLMFNYIGMLQSAGPKQWVHDELAELSAVKFRFKDKEQPMTMAINVAASLQYIPFEHILSSRYLLTKYEPERIKELLSMLSPANMQVRVVSQKFKGQEGNTNEPVYGTEMKVTDISPETMKKYENALKTSHHALHLPEKNEYIATNFDQKPRESVKNEHPRLISDDGWSRVWFKQDDEYNMPKQETKLALTTPMVAQNPRMSLLSSLWLWCLSDTLAEETYNADLAGLKCQLESSPFGVQMRVSNRREAERHASLTLHVYGYDEKQALFAKHLANRMTNFKIDKTRFDVLFESLKRALTNHAFSQPYLLTQHYNQLLIVDKVWSKEQLLAVCDSVTLEDVQGFAKEMLQAFHMELFVHGNSTEKEAIQLSKELMDVLKSAAPNSRPLYRNEHNPRRELQLNNGDEYVYRHLQKTHDVGCVEVTYQIGVQNTYDNAVVGLIDQLIREPAFNTLRTNEALGYIVWTGSRLNCGTVALNVIVQGPKSVDHVLERIEVFLESVRKEIAEMPQEEFDNQVSGMIARLEEKPKTLSSRFRRFWNEIECRQYNFARREEEVALLKTIKKDDVLELFDKKIRKDAAERRKLAVFVHGKNEDQEAVNTIIKKNAESGKKEKEVLYSDQLRQFLPLYGRPIAAIDLKPIGVDPLEHQETTKSKY | not soluble
MSLSLYQSVRAVANARGGETEWIDWRATAEAAKQARDQGALTLDDAERRAYATDVRDARSRLRTVGGLEFDIPQTIEVQNRHHWIDANIKTFERMLDPIDIATLIDDTNALNGPSGYATRMVNTGSMAAALAFLSGNVLGQYDPQLLSQTTDTIETNENNHELYFVHPNIVDVAAELDVEYPRFRRWIAFHEVAHAAEFGAAPWLRTHIEDRIESGLEALTGGRLDRSAFSDVDIVMTAVEGYAELLMDRAFDKEYADLRAKLDARRGGGGPVAQLFRRLLGLGVKERQYERGAQFFETIADQRGVKAAATVWEDPRYLPDESELDNPQYWIDRVNEGHHHHHH | not soluble
MSLSNISLTTLGGVRENGKNMYIAEIGESIFVLNVGLKYPENEQLGVDVVIPNMDYLFENSDRIAGVFLTHGHADAIGALPYLLAEAKVPVFGSELTIELAKLFVKGNDAVKKFNDFHVIDENTEIDFGGTVVSFFPTTYSVPESLGIVLKTSEGSIVYTGDFKFDQTASESYATDFARLAEIGRDGVLALLSDSANADSNIQVASESEVRDEITQTIADWEGRIIVAAVSSNLSRIQQIFDAADKTGRRIVLTGFDIENIVRTAIRLKKLSLANEILLIKPKDMSRFEDHELIILETGRMGEPINGLRKMSIGRHRYVEIKDGDLVYIATAPSIAKEAFVARVENMIYQAGGVVKLITQSLHVSGHGNVRDLQLMINLLQPKYLFPVQGEYRELDAHAKAAMAVGMLPERIFIPKKGTTMAYENGDFVPAGSVSAGDILIDGNAIGDVGNVVLRDRKVLSEDGIFIVAITVNRREKKIVARARVHTRGFVYLKKSRDILRESSELINQTVEEYLQGDDFDWADLKGKVRDNLTKYLFDQTKRRPAILPVVMEAEGHHHHHH | not soluble
MSLSNYISIKGAKVNNLKNIDVNIPRNKLVVITGLSGSGKSSLAFDTLYAEGQRRYVESLSSYARQFLGRMSKPECDFIKGIPPAIAIEQKVNSRNPRSTVGTSTEIYEYLRLLYARVGKTYSPISGQLVKKHSIEDIVNCMLSFPKGTKYTVLTPMMPREGRTLLQQLEMDLKQGFTRIEVNREIVRIEDFLQQTAAEDKKQNIYLLVDRMTADDSKDSISRLTDSAETAMYEGDGNCLLRFYSADGSTQLFSFSTKFETDGIKFEEPNDQMFSFNSPLGACPECEGFGKVIGIDEHLVIPNRALSVYDGAVLCWRGEKMGEWLQEFIHEAPAHDFPIFAPYYELTQEQKDYLWHGPRNKACIDSFFKMLEENQYKIQYRVMLARYRGKTICPVCHGTRLKKEAGYVKVGGKSISQLVDLPIHDLKEFFRTLELDAHDTAIAKRILTEITNRINFLMDVGLGYLTLNRLSNSLSGGESQRINLATSLGSSLVGSLYILDEPSIGLHSRDTDRLIKVLRQLQELGNTVVVVEHDEEIIRAADYIIDIGPQAGRLGGQIVYQGNMNDLQRNSNSYTVRYLLGEEGHHHHHH | not soluble
MSLSPEGVNGNRCSESFPLLEKYRIGKVIGDGNFAVVKECVDRYTGKEFALKIIDKAKCCGKEHLIENEVSILRRVKHPNIIMLVEEMETATDLFLVMELVKGGDLFDAITSSTKYTERDGSAMVYNLANALRYLHSLSIVHRDIKPENLLVCEYPDGTKSLKLGDFGLATVVEGPLYTVCGTPTYVAPEIIAETGYGLKVDVWAAGVITYILLCGFPPFRSENNLQEDLFDQILAGKLEFPAPYWDNITDSAKELISQMLQVNVEARCTAGEILSHPWVSDDASQENNMQAEVTGKLKQHFNNALPKQNSTTTGVSVIMNTALDKEGQIFCSKLCQDSSRPSREGHHHHHH | not soluble
MSLSPFEHPFLSGLFGDSEIIELFSAKADIDAMIRFETALAQAEAEASIFADDEAEAIVSGLSEFAADMSALRHGVAKDGVVVPELIRQMRAAVAGQAADKVHFGATSQDVIDTSLMLRLKMAAEIIATRLGHLIDTLGDLASRDGHKPLTGYTRMQAAIGITVADRAAGWIAPLERHLLRLETFAQNGFALQFGGAAGTLEKLGDNAGAVRADLAKRLGLADRPQWHNQRDGIAEFANLLSLVTGTLGKFGQDIALMAEIGSEIRLSGGGGSSAMPHKQNPVNAETLVTLARFNAVQISALHQSLVQEQERSGAGWMLEWLTLPQMVTATGTSLLVAERLAAQIDRLGADESHHHHHH | soluble
MSLSPIAPYEIGYVHIDSCELCHADGKLVMFLAIDRVSKFTYVDFHDCAGKMEGAAFLRNVVEAFPYQIHIVLTDNGMAFADLPKNRNGPSRRFFGPHIFDRVCIEHGIEHRLTKPYHPWTNGQAERMNRTIKDATIKAYHYDDLESLKAHVLAFVTAYNFAKHLKALRWRTPYQAICDARTKDPSIFKIDPHHLTQGPHTLSEGHHHHHH | not soluble
MSLSRSLSECIDQGRGLVPADLVLKHGRVFDLVTGELVQTDVAICGDRIVGTFGTYTGRREIDCRGRILVPGFIDTHLHVESSLVTPFEFDRCVTPRGITTAICDPHEIANVCGLEGIRYFLEASAHLVMDLRVQLSSCVPSTHMETAGAALEAKDLAPLMDHPRVIGLAEFMNFPGVLMKDPGCMAKLEAFRGRHIDGHAPLLRGKDLNGYIAAGIRTEHEATTAEEALEKLRKGMRVLIREGSVSKDLHALVSILTERHAPYLCLCTDDRNPLDIAEHGHIDHMIRTAIRLGAPPLAVYRAASLSAADAFGLKDRGLIAPGRRADIAVLDSLEGCHAALVLAGGVVADDAAFSARSDIEPVARASVKVAEIAPEAFRCPGNRADTPVIGILPGKIITEHLTAEIEPVDGDKRPDPVRDLARIAVIERHGKTGGRATGFVRGFGMARGAIASTVCHDHHNLAVVGIDYADMALAANRLRALEGGFAVAAGGEILAELALPVGGLMSLRPFEEVRDALVTLREAARSLGVTLEEPFLQLAFLALPVIPHLKITDRGMVDVDRFEILEGHHHHHH | soluble
MSLSSGGGQFIKPASGILTSGFSERTNPVTGKYESHKGQDIAGGGTVTVSAAASGTVVFSGFGASGSGFGGYGYVVKIDHGNGFQTLYGHMRAGSLKVVTGQQVSQGQPIGIMGSTGQSTGQHLHFEIHKNGIPVDPAPYIEGHHHHHH | soluble
MSLSSKLRLQLDAHASIHENVRRLLQFTTSIMEANEEGIRKDIDSEFLHDFRVAIRRSRSILRLLNGVFDPEKTAWMLAGLRELGKRTNDLRDSDVYLLRREEYTSLLPPSLRPALDPFFSDLEADKRLHHRQFCRYLTGREYSGFMTSLKEFIAEGELPDPETAPLAAEPTGDVAAKTIRKALKKVLVHGRRTGSETSDAELHELRIDCKKLRYLLEFFASLFPPKATAQVLRQMKTLQDNLGTFVDLTVQMEFLQSRLETIPADRGGISEAAAIGGLLTTLYRKREKVREHFHEIFSGFDSNETGELFDELLTGLAEGHHHHHH | soluble
